Test system: Escherichia coli TOP10
Assay: shrunken log2 fold change of peptide-encoding DNA abundance (4.5 h post-induction vs induction); higher = less antimicrobial activity (less host growth inhibition)
Conditions: time post-induction: 4.5 h; library: site-saturation at positions 5, 18, 19, 20
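Note: peptides expressed intracellularly from a pBAD plasmid library in pooled LB shake-flask culture, induced with 0.3% L-arabinose, DNA abundance read by NGS, three biological replicates, DESeq2 with apeglm shrinkage.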

Row | Sequence | shrunken log2 fold change
1 | RRIRQRPPRLPRPRPRPSNLPRP | -0.11
2 | RRIRHRPPRLPRPRPRPHLIPRP | -0.097
3 | RRIRYRPPRLPRPRPRPFVNPRP | 0.017
4 | RRIRYRPPRLPRPRPRPMKQPRP | -0.0304
5 | RRIRHRPPRLPRPRPRPFCDPRP | 0.128
6 | RRIRWRPPRLPRPRPRPRFHPRP | -0.293
7 | RRIRDRPPRLPRPRPRPGSNPRP | -0.153
8 | RRIRCRPPRLPRPRPRPMFTPRP | -0.497
9 | RRIRFRPPRLPRPRPRPHVLPRP | -0.286
10 | RRIRDRPPRLPRPRPRPMPCPRP | 0.000981
11 | RRIRKRPPRLPRPRPRPEKHPRP | 0.401
12 | RRIRLRPPRLPRPRPRPVNGPRP | -0.0366
13 | RRIRVRPPRLPRPRPRPFIPPRP | -0.535
14 | RRIRSRPPRLPRPRPRPETRPRP | 0.192
15 | RRIRFRPPRLPRPRPRPSFVPRP | -0.828
16 | RRIRNRPPRLPRPRPRPYTFPRP | -0.0167
17 | RRIRIRPPRLPRPRPRPTPWPRP | 0.154
18 | RRIRPRPPRLPRPRPRPENAPRP | 0.0319
19 | RRIRNRPPRLPRPRPRPETVPRP | -0.00716
20 | RRIRCRPPRLPRPRPRPSKAPRP | 0.0693
21 | RRIRFRPPRLPRPRPRPMRMPRP | -0.0248
22 | RRIRGRPPRLPRPRPRPRYPPRP | 0.232
23 | RRIRRRPPRLPRPRPRPTTDPRP | 0.647
24 | RRIRRRPPRLPRPRPRPETEPRP | 0.783
25 | RRIRPRPPRLPRPRPRPLMCPRP | -0.122

Row | Sequence | shrunken log2 fold change
26 | RRIRWRPPRLPRPRPRPDFQPRP | 0.0985
27 | RRIRMRPPRLPRPRPRPITQPRP | -0.00846
28 | RRIRPRPPRLPRPRPRPQTCPRP | 0.111
29 | RRIRCRPPRLPRPRPRPAPLPRP | 0.645
30 | RRIRFRPPRLPRPRPRPATMPRP | -0.0804
31 | RRIRSRPPRLPRPRPRPTKPPRP | 0.196
32 | RRIRQRPPRLPRPRPRPKHWPRP | 0.0984
33 | RRIRWRPPRLPRPRPRPCLHPRP | -0.01
34 | RRIRIRPPRLPRPRPRPSTLPRP | -0.726
35 | RRIRFRPPRLPRPRPRPRRHPRP | 0.822
36 | RRIRARPPRLPRPRPRPRYEPRP | 0.0403
37 | RRIRQRPPRLPRPRPRPFIAPRP | -0.277
38 | RRIRCRPPRLPRPRPRPKPRPRP | 0.749
39 | RRIRFRPPRLPRPRPRPYMLPRP | -0.61
40 | RRIRARPPRLPRPRPRPGTSPRP | 0.24
41 | RRIRWRPPRLPRPRPRPRLIPRP | 0.55
42 | RRIRKRPPRLPRPRPRPKLFPRP | 0.379
43 | RRIRTRPPRLPRPRPRPMNMPRP | -0.24
44 | RRIRTRPPRLPRPRPRPACDPRP | 0.139
45 | RRIRYRPPRLPRPRPRPYRCPRP | 0.0155
46 | RRIRTRPPRLPRPRPRPFFEPRP | 0.123
47 | RRIRCRPPRLPRPRPRPMCKPRP | -0.109
48 | RRIRNRPPRLPRPRPRPEYVPRP | -0.05
49 | RRIRKRPPRLPRPRPRPPSDPRP | 0.75
50 | RRIRSRPPRLPRPRPRPGFDPRP | 0.455

Row | Sequence | shrunken log2 fold change
51 | RRIRLRPPRLPRPRPRPRVPPRP | 0.264
52 | RRIRKRPPRLPRPRPRPIRIPRP | -0.0265
53 | RRIRWRPPRLPRPRPRPLTFPRP | -0.501
54 | RRIRVRPPRLPRPRPRPPDIPRP | 0.248
55 | RRIRERPPRLPRPRPRPGPKPRP | -0.00801
56 | RRIRVRPPRLPRPRPRPRITPRP | -0.11
57 | RRIRSRPPRLPRPRPRPHARPRP | 0.0679
58 | RRIRVRPPRLPRPRPRPMHFPRP | -0.409
59 | RRIRLRPPRLPRPRPRPKKKPRP | 0.141
60 | RRIRERPPRLPRPRPRPEGAPRP | 0.592
61 | RRIRARPPRLPRPRPRPYGHPRP | -0.095
62 | RRIRPRPPRLPRPRPRPYDHPRP | -0.0209
63 | RRIRNRPPRLPRPRPRPNVEPRP | -0.0627
64 | RRIRGRPPRLPRPRPRPIKTPRP | 0.143
65 | RRIRARPPRLPRPRPRPRGPPRP | 0.933
66 | RRIRDRPPRLPRPRPRPHSLPRP | -0.341
67 | RRIRKRPPRLPRPRPRPHDNPRP | 0.029
68 | RRIRQRPPRLPRPRPRPNKRPRP | 0.0702
69 | RRIRKRPPRLPRPRPRPTTDPRP | 0.385
70 | RRIRERPPRLPRPRPRPWRLPRP | -0.00145
71 | RRIRNRPPRLPRPRPRPTCQPRP | 0.0956
72 | RRIRNRPPRLPRPRPRPHKNPRP | -0.237
73 | RRIRNRPPRLPRPRPRPKKQPRP | -0.0788
74 | RRIRRRPPRLPRPRPRPCAPPRP | 0.275
75 | RRIRMRPPRLPRPRPRPNIEPRP | 0.219
